Reference: the nanobody polyreactivity screen of Harvey et al. (2022)

Experiment: yeast display, Sf9 membrane polyspecificity reagent, FACS + sequencing; frameworks hold sequencing errors
In short: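 Sorting gates, low and high (top ~1%), were placed on anti-HA fluorescence to track expression and on streptavidin fluorescence to track reagent binding. A clone's polyreactivity label is taken from the gate it came out of. The reagent was 10% biotinylated, detergent-solubilized Sf9 membrane, applied for 1 hour at 4 °C to galactose-induced yeast display cells.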

Sequence | polyreactivity (PSR sort gate)
QVQREESGGGLVQAGGSLRLSCVASGSTFRYYAMGWYRQSPGTERELVAAITWRGTSTYYADSVKGRFTISRDNAKNTVYLQMNSLKPEDTAVYYCNAAGYWPATGDYWGQGTQVTVSW | high polyreactivity
QVQRVESGGCLVQAGGSLRLSCAASGIIFGDNVRGWYRQSPGKERQLVAAITSDGSTNYADSVKGRFTISSDNEKNNVYLQMNSLKPEDTAVYYCNVSASYYSPDPKVLVRYDYWGQGSQVTVSS | low polyreactivity
QVQRVESGGGIVQAGVSLSLSCPASGRIFTSNAMGWYRQEPGKERELVAAIRWSDGSTYYADSVKGRFTISRDNAKNTVYLQMNSLKPEDTAVYYCAADTRTSYYNDDYVFWGQGTQVTVSS | low polyreactivity
QVQRVESGGGLVPAGGSLRLSCAASGSIFYYNAMGWYRQAPGKERELVAAISWGDGITYYADSVKGRFTISRDNAKKTVYVQMNSLKPEDTAVYYCAVDYYYLPYEYWGQGTQVTVSS | high polyreactivity
QVQRVESGGGLVQAGGRLRLSCAASGLIFAHDARGWYRQAPGKERELVAGINRSGGSTYYADSVKGRFTISRDNAKNTVYLQTNSLKPEDTAVYYCAARRAYPRPGYDYWGQGTQVTVSS | high polyreactivity
QVQRVESGGGLVQAGGSLRISCAASGLTINNYARGWYRQAPGKERELVAAISFSGGDTYYADSVKGRFTISRDNAKNTVYLQMNSLKPEDTGVYYFAAESYSVLQMGYWGQGTQVTVSS | high polyreactivity
QVQRVESGGGLVQAGGSLRLSCAASAFTFGANAMGWSRQAPGKERELVAAISVSDGITYYADSVKGRFTISRDNAKNTVYLLMNSLKPEDTAVYYCAAETYGYLFHSYDYWGQGTQVTVSS | low polyreactivity
QVQRVESGGGLVQAGGSLRLSCAASANTYLNAMGWYIQAPGKESELVAAISKGGADTYYADSVKGRFTISRDNAKNTVYLQMTSLIPEDSAVYYCADVGYADGWWVDYPWTYDYWGQGTQVTVSS | low polyreactivity
QVQRVESGGGLVQAGGSLRLSCAASGFIFPWYAMGWYRQAPGKESELVAAISRGGRTNYADSVKGRFTISRDNAKNTVYLQMNSLKPEDTAVYYCAKKYYLSGSRADDSGGQGTQVTVSS | high polyreactivity
QVQRVESGGGLVQAGGSLRLSCAASGIIFQSYAMGWYRQAPGKERELVAAISRRGRRTYYADSVKGRFTFSRDNAKNTVDLQMTSLKPEDTAVYYCADRYRYAPYDYWGQGTQVTVSS | high polyreactivity
QVQRVESGGGLVQAGGSLRLSCAASGLTFNNNAMGCYRQAPGTARELVAAISRTAVRTYYADSVKGRFTISRDNAKNTVYLQMNSLKPEDTAVYYCNGVSYYGGYPVTYDYWGQGTQVTVSS | high polyreactivity
QVQRVESGGGLVQAGGSLRLSCAASGLTSKFYAMGWYRQAPRKERELVAAISGSGGSTYYADSVKGRFTISRDKAKNTVYLQMNSLKPEDTAVYYFAARYFGLRYYYWGQGTQVTVSS | high polyreactivity
QVQRVESGGGLVQAGGSLRLSCAASGRIFRYNAMGWYRQAPGKERELVAAISGTADRTYYADSVKGRFTNSRDNAKNTVYLQMNSLKPEDTAVYYCAVAYSYRYYYWGQGTQVTVSS | high polyreactivity
QVQRVESGGGLVQAGGSLRLSCAASGRIFSIYGMGWYRQAPGKERELVAVISGSVGITYYADSVKGRFTISRDNAKNTVYLQINSLKPEDTAVFYCNAKVRRRKYDYWGQGTQVTVSS | high polyreactivity
QVQRVESGGGLVQAGGSLRLSCAASGRPFDVYALGGYRQAPGKERELVATITYSGGITYYADSVKGRFTISRDNAKTTVYLQMNSLKPEDTAVYYPIGVGGDYDYWGQGTQVTVSS | low polyreactivity
QVQRVESGGGLVQAGGSLRLSCAASGRTFAPNAMGWYRQAPGKERELVAAITRRTGSTYYADSVKGRFTISRDNAKNTVYLQMNSLKPEDTAVYYCNGRRRTWYGFYYWGQGTQVTVSS | high polyreactivity
QVQRVESGGGLVQAGGSLRLSCAASGSIFRGYAMGWYRQEPEKERELVAAISRRGGSTYYADSVKGRFTISRDNAKNTVYLQMNSLKPEDTAVYYCAIDGTGAGTYDYWGQGTQVTVSS | low polyreactivity
QVQRVESGGGLVQAGGSLRLSCAASGSIFYWYAMGWNIQAPGEEREFVAAITWSGGSTYYADSVKGRFTISRDNAKNTVYLQMNSLQPEDTAVYSCAAQGRRYGYGDFYYWGQGSQVTVSS | high polyreactivity
QVQRVESGGGLVQAGGSLRLSCAASGSTFTRYGMGWYRQAPGKERELVAAISDRGVSTYYADSVKGRFTISRDNAKNTVYLQMNRMKPEDTAVYYCAAVFWVDILPGDYWGQGTQVTVSS | low polyreactivity
QVQRVESGGGLVQAGGSLRLSCAASGSTFYFYARGWYRQAPGKERELVAVITDGGAITYYADSVKGRFTISRDNAKNTVYLQMNSLKPEDTAVYYCAASSFGWYTRYDYWGQGTQVTVSS | high polyreactivity
QVQRVESGGGLVQAGGSLRLSCAASGSTLGYYTMGWYRQAPGKERELVAAIDWSGGSTYYADSVKGRFTISRDNAKNTGYLQMNSLKPEDTAVYYCNAEPWDPFYSPGRGGMDYWGQGTQVTVSS | low polyreactivity

Sequence | polyreactivity (PSR sort gate)
QVQRVESGGGLVQAGGSLRLSSADSGLTLYRYAMGWYRQAPGKERELVAAISSGDRTNYADSVKGRFTISRDNAKNTVYLHMNSLKPEDTAVYYCAALRQARQKKYGYWGQGTQVTVSS | high polyreactivity
QVQRVESGGGLVQAGGSLRLSWAASGSTFSRYAMGWYRQAPGTERELVAAISASGGGTYYADSVKGRFTISRDNAKNTVYLQMNSLQPEDTAVFYCAAVRIARAVQDYDYWGQGTQVTVSS | high polyreactivity
QVQRVESGGGLVQAGGSLRLTSAVSGTTFYIYAMGWYRQAPGKEREFVAAIDFSGSSTYADSVKGRFTISRDNAKNTVYLQMNSLKPEDTEVYYCAAYQIFQYDGPYDYWGQGTQVTVSS | low polyreactivity
QVQRVESGGGLVQAGGSRRLSCAASGNIFRRYTMGWYRQAPGKERELVAAISRRGGSTHYADSVKGRFTISRDNAKNTVYLQMNSLKPEDTAVYYCNAYLVYSYSPSHYYGFGYWGQGTQVTVSS | high polyreactivity
QVQRVESGGGLVQAGGSRRLSCAASGSIFSAYAMGWYRQAPGKEREFVAAITRRGGNTYYADSVKGRFTISRDNAKNTVYLQMNSLKPDDTAVYYCAADAGGGPFDYSGQGTQVTVSS | low polyreactivity
QVQRVESGGGLVQAGGSRRLTCAASGRTSVPYARGWYRQAPGKERELVAAITSGGSTYYADSVKGRFTISRDNAKNTVYLQMNSLKPEDTAVYYCAASLPHSAPYTASYGSWGQGTQVTVSS | low polyreactivity
QVQRVESGGGLVQAGGTLRLSCAASGNTFDYYAMGWYRQAPGKERELVAAIRYRGGTTYYADSVKGRFTISRDNAKNTVYLQMNSLKPEDTAVYYCAARYVPYSRRYNYWGQGTQVTVSS | high polyreactivity
QVQRVESGGGLVQARGSLRLSCAASGRIFYRYAMGWNIQAPGKERELVAAISGSVGSTYADSVKGRFTISRDNAKNTVYLQMNSLKPEDTAVYYCARETYRRYGAYDYWGQGTQVSVSS | low polyreactivity
QVQRVETGGGLFQAGGSLRLSCAASGRTFGPYAMGWYIQAPGKERELVAAIRYIDDSTFYADSVKGRFTISRDNAKNTVYVQMNSLKPEDTAVYYCAAQRRVVGRHGLSLIRYDYWGQGTQVTVSS | low polyreactivity
QVQVESGGGLVQAGGSLRLSCGASGSIIDQYVMGWYRQAPGKERELVAAISRGGRTYYADSVKGRFTISRDNAKNTVYLQMNSLNPEDTAVYYCATGYGPYLGRPHLTLYYYWGQGTQVTVSS | low polyreactivity
QVQVVDSGGGLVQAGGSLLLSCAASGSILGFNAMGWYRQSPGKEMELVASISSSGDSTYYADSEKGRFTISRDNAKNTVYLQMNSLKPEDTAVYYCATEGRTDYNREMEYWGQGSQVTVSS | low polyreactivity
QVQVVESGGGLVHAGGSLRLSCAASGITCVWNDMGWYRQPPGKEREFVAGITYRSGRTYYADSVKGRFTISRDNAKNTVYLQMNSLKPEDTAGYYCATTPRYTTYNYWGQGTQVTVSS | high polyreactivity
QVQVVESGGGLVKAAGSLGLSCSASGLNFRFYTMGWYRQAPGKERELVAAISTSGGSTYYADSVKGRFTISRDNAKNNVFLQMNSLKPEDTAVYYCIAVYAFNGYDYWGQGTQVTVSS | low polyreactivity
QVQVVESGGGLVQAGGRLRLSCAASGSTFKYYVMGWYRQAPGKERELVAAITRSGSTNYADSVKGRFRISRDNAKNTVYLQMNSLKPEDTAVYYCATDSLRLYGGKRDQYYWGQGTQVTVSS | low polyreactivity
QVQVVESGGGLVQAGGSIRLSCAASGSILSRYAMGWYRQAPGKERELFAAITSSGGTTYYADSVKGRFTISRDTAKNTVYLQMNSLKPEDTAVYYCADHGSRYGYGDFYYWGQGTQVTVSS | high polyreactivity
QVQVVESGGGLVQAGGSLRISCAASGSIFPGYDMGWYRQAPGKERELVAAIRTSGGSTNYADSVKGRFTISRDNAKNTVYLQMNSLKPEDTAVYYCAARTNSPRGTKRYYWGQGTQVTVSS | high polyreactivity
QVQVVESGGGLVQAGGSLRLSCAASGIIFKQNVMGRYIQAPGKERELVAAISRGGSTNYADSLKGRFTISRDNAKNTVYLQMNSLKPEDTEVYYCAARFVLRREYGYWGQGTQVTVSS | high polyreactivity
QVQVVESGGGLVQAGGSLRLSCAASGRIFYQNAMGWYRPAPGKERELVADISSGGSTYYADSVKGRFTISRDNAKNTVYLQMNSLKPEDTAVYYCNTPSGPGTVGSYRRIWYGYWGQGTQVTVSS | low polyreactivity
QVQVVESGGGLVQAGGSLRLSCAASGRIFYTNAMGWYRQAPGKERELVAVISWGGDTTYYADSVKGRFTISRDKAKNTVYLQMNSLKPEDTAVYYCNADWGPTYEIYDSWGQGTQVTVSS | low polyreactivity
QVQVVESGGGLVQAGGSLRLSCAASGSIFFFYAMGWYRQAPGQERELVAAITGSGGSTYYADSVKGRFTISRDKAKNTVYLQMNSLKPEDPAVYYCAVRTSRQVYSYGGYESWGHGTQVTVSS | low polyreactivity
